Data: article PMC9913602

Legend:
[1] = target: HCV NS3/NS4A protease complex (NS3 protease domain residues 1-182 preincubated with synthetic NS4A cofactor peptide) (hepatitis C virus); experiment: single-turnover cleavage kinetics (Western blot of remaining substrate); 0.1 μM IKKε with 5 μM NS3 + 244 μM NS4A peptide, 23 °C, digestion buffer (50 mM HEPES pH 7.8, 0.5 mM EDTA, 25% glycerol, 10 mM DTT, 0.25 M KCl, 0.05 M NaCl, 0.2% CHAPS); Kd estimated by Equation (2) from the constant c of the single-exponential fit, assumed to be unbound kinase
[2] = target: HCV NS3/NS4A protease complex (NS3 protease domain residues 1-182 preincubated with synthetic NS4A cofactor peptide) (hepatitis C virus); experiment: single-turnover cleavage kinetics (Western blot of remaining substrate); 0.5 μM IKKε with 5 μM NS3 + 244 μM NS4A peptide, 23 °C, digestion buffer (50 mM HEPES pH 7.8, 0.5 mM EDTA, 25% glycerol, 10 mM DTT, 0.25 M KCl, 0.05 M NaCl, 0.2% CHAPS); Kd estimated by Equation (2) from the constant c of the single-exponential fit, assumed to be unbound kinase

Q: With “Recombinant human IKKε (Inhibitor of κB kinase ε) (from UniProt Q14164 1-716) (enzyme)” as the substance, how does the Kd [1] read?
A: Its Kd is 4.57 µM.

Q: And the Kd [2]?
A: Its Kd is 1.68 µM.
